Test results: patent publication US20200055896

Tests used:
[1] = molecular target: ANPFAP, internally-quenched FRET peptide substrate for FAP (Li et al. 2012)
[2] = molecular target: T1, GP probe: fluorescence-quenched peptide of the region flanking the C-terminal human FGF21 cleavage site (VGPSQG)
T1 chain: VGPSQGK

[3] = molecular target: EP probe: fluorescence-quenched peptide of the homologous region of murine FGF21

B1: Human prolyl oligopeptidase (PREP, 4308-SE) (protein)
chain: MLSLQYPDVYRDETAVQDYHGHKICDPYAWLEDPDSEQTKAFVEAQNKITVPFLEQCPIRGLYKERMTELYDYPKYSCHFKKGKRYFYFYNTGLQNQRVLYVQDSLEGEARVFLDPNILSDDGTVALRGYAFSEDGEYFAYGLSASGSDWVTIKFMKVDGAKELPDVLERVKFSCMAWTHDGKGMFYNSYPQQDGKSDGTETSTNLHQKLYYHVLGTDQSEDILCAEFPDEPKWMGGAELSDDGRYVLLSIREGCDPVNRLWYCDLQQESSGIAGILKWVKLIDNFEGEYDYVTNEGTVFTFKTNRQSPNYRVINIDFRDPEESKWKVLVPEHEKDVLEWIACVRSNFLVLCYLHDVKNILQLHDLTTGALLKTFPLDVGSIVGYSGQKKDTEIFYQFTSFLSPGIIYHCDLTKEELEPRVFREVTVKGIDASDYQTVQIFYPSKDGTKIPMFIVHKKGIKLDGSHPAFLYGYGGFNISITPNYSVSRLIFVRHMGGILAVANIRGGGEYGETWHKGGILANKQNCFDDFQCAAEYLIKEGYTSPKRLTINGGSNGGLLVAACANQRPDLFGCVIAQVGVMDMLKFHKYTIGHAWTTDYGCSDSKQHFEWLVKYSPLHNVKLPEADDIQYPSMLLLTADHDDRVVPLHSLKFIATLQYIVGRSRKQSNPLLIHVDTKAGHGAGKPTAKVIEEVSDMFAFIARCLNVDWIP
[1]
  cleavage of quenched-FRET peptide, 10 nM enzyme: both FAP and PREP efficiently cleave ANPFAP in vitro
[2]
  cleavage of fluorescence-quenched peptide (FRET-quench assay), 1 nM enzyme: both enzymes readily cleaved the GP peptide

B2: FAP in mouse plasma (protein)
chain: IVLRPSRVYKPEGNTKRALTLKDILNGTFSYKTYFPNWISEQEYLHQSEDDNIVFYNIETRESYIILSNSTMKSVNATDYGLSPDRQFVYLESDYSKLWRYSYTATYYIYDLQNGEFVRGYELPRPIQYLCWSPVGSKLAYVYQNNIYLKQRPGDPPFQITYTGRENRIFNGIPDWVYEEEMLATKYALWWSPDGKFLAYVEFNDSDIPIIAYSYYGDGQYPRTINIPYPKAGAKNPVVRVFIVDTTYPHHVGPMEVPVPEMIASSDYYFSWLTWVSSERVCLQWLKRVQNVSVLSICDFREDWHAWECPKNQEHVEESRTGWAGGFFVSTPAFSQDATSYYKIFSDKDGYKHIHYIKDTVENAIQITSGKWEAIYIFRVTQDSLFYSSNEFEGYPGRRNIYRISIGNSPPSKKCVTCHLRKERCQYYTASFSYKAKYYALVCYGPGLPISTLHDGRTDQEIQVLEENKELENSLRNIQLPKVEIKKLKDGGLTFWYKMILPPQFDRSKKYPLLIQVYGGPCSQSVKSVFAVNWITYLASKEGIVIALVDGRGTAFQGDKFLHAVYRKLGVYEVEDQLTAVRKFIEMGFIDEERIAIWGWSYGGYVSSLALASGTGLFKCGIAVAPVSSWEYYASIYSERFMGLPTKDDNLEHYKNSTVMARAEYFRNVDYLLIHGTADDNVHFQNSAQIAKALVNAQVDFQAMWYSDQNHGISSGRSQNHLYTHMTHFLKQCFSLSD
[2]
  cleavage of the GP probe in mouse plasma, with cpd60 and KYP-2047: FAP is the major enzyme responsible for the cleavage of the GP probe in plasma

B3: N-terminal octa-His-tagged mouse FAP protein containing the extracellular domain (residues L26-D761) (protein)
chain: LRPSRVYKPEGNTKRALTLKDILNGTFSYKTYFPNWISEQEYLHQSEDDNIVFYNIETRESYIILSNSTMKSVNATDYGLSPDRQFVYLESDYSKLWRYSYTATYYIYDLQNGEFVRGYELPRPIQYLCWSPVGSKLAYVYQNNIYLKQRPGDPPFQITYTGRENRIFNGIPDWVYEEEMLATKYALWWSPDGKFLAYVEFNDSDIPIIAYSYYGDGQYPRTINIPYPKAGAKNPVVRVFIVDTTYPHHVGPMEVPVPEMIASSDYYFSWLTWVSSERVCLQWLKRVQNVSVLSICDFREDWHAWECPKNQEHVEESRTGWAGGFFVSTPAFSQDATSYYKIFSDKDGYKHIHYIKDTVENAIQITSGKWEAIYIFRVTQDSLFYSSNEFEGYPGRRNIYRISIGNSPPSKKCVTCHLRKERCQYYTASFSYKAKYYALVCYGPGLPISTLHDGRTDQEIQVLEENKELENSLRNIQLPKVEIKKLKDGGLTFWYKMILPPQFDRSKKYPLLIQVYGGPCSQSVKSVFAVNWITYLASKEGIVIALVDGRGTAFQGDKFLHAVYRKLGVYEVEDQLTAVRKFIEMGFIDEERIAIWGWSYGGYVSSLALASGTGLFKCGIAVAPVSSWEYYASIYSERFMGLPTKDDNLEHYKNSTVMARAEYFRNVDYLLIHGTADDNVHFQNSAQIAKALVNAQVDFQAMWYSDQNHGISSGRSQNHLYTHMTHFLKQCFSLSD
[3]
  cleavage of fluorescence-quenched peptide (FRET-quench assay): purified recombinant mouse FAP protein cleaved the GP but not GG or EP probes
[2]
  catalytic efficiency (Michaelis-Menten kinetics): mouse FAP exhibited a lower catalytic efficiency than human FAP, mainly due to a reduced kcat
  cleavage of fluorescence-quenched peptide (FRET-quench assay): purified recombinant mouse FAP protein cleaved the GP but not GG or EP probes
